Measurements taken from patent US20060257938A1, “Method of screening for drugs that block ligand binding to a lipid binding protein” (priority 2005, published 2006).

Tests used:
Format in all cases: binding
[1] = Probe fluorescence ratio response to arachidonic acid relative to ADIFAB2; settings: arachidonic acid; response relative to ADIFAB2
Outline: (§1)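 Fluorescently labeled rat intestinal FABP variants were read at two emission wavelengths, near the unbound maximum (about 420 to 480 nm) and the FFA-bound maximum (about 495 to 580 nm). R = Fλ1/Fλ2 after subtracting probe-free intensity; ΔR = R+agent − R0, normalized to ADIFAB2 (rI-FABP-L72A).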

[2] = Probe fluorescence ratio response to palmitic acid relative to ADIFAB2; settings: response relative to ADIFAB2
Outline: as §1

[3] = Probe fluorescence ratio response to oleic acid relative to ADIFAB2; settings: response relative to ADIFAB2
Outline: as §1

[4] = Probe fluorescence ratio response to linoleic acid relative to ADIFAB2; settings: response relative to ADIFAB2
Outline: as §1

[5] = Probe fluorescence ratio response to linolenic acid relative to ADIFAB2; settings: response relative to ADIFAB2
Outline: as §1

Molecule | DR/DR AA [1] | DR/DR PA [2] | DR/DR OA [3] | DR/DR LA [4] | DR/DR LNA [5]
14I 72G 117V (protein, listed as Rattus norvegicus, PEPTIDE (1)...(131) wild-type rat intestinal fatty acid binding protein) AFDGTWKVDRNENIEKFMEKMGINVVKRKLGAHDNLKLTITQEGNKFTVKESSNFRNIDVVFELGVDFAYSGADGTELTGTWTMEGNKLVGKFKRVDNGKELIAVREISGNELIQTVTYEGVEAKRIFKKE | 0.928 | 0.085 | 0.337 | 0.622 | 0.547
106D, 72A (protein, listed as Rattus norvegicus, PEPTIDE (1)...(131) wild-type rat intestinal fatty acid binding protein) AFDGTWKVDRNENYEKFMEKMGINVVKRKLGAHDNLKLTITQEGNKFTVKESSNFRNIDVVFELGVDFAYSAADGTELTGTWTMEGNKLVGKFKRVDNGKELIAVDEISGNELIQTYTYEGVEAKRIFKKE | 0.502 | 0.147 | 0.423 | 0.584 | 0.591
14L 72G 117V (protein, listed as Rattus norvegicus, PEPTIDE (1)...(131) wild-type rat intestinal fatty acid binding protein) AFDGTWKVDRNENLEKFMEKMGINVVKRKLGAHDNLKLTITQEGNKFTVKESSNFRNIDVVFELGVDFAYSGADGTELTGTWTMEGNKLVGKFKRVDNGKELIAVREISGNELIQTVTYEGVEAKRIFKKE | 0.873 | 0.055 | 0.297 | 0.548 | 0.513
23L, 72A (protein, listed as Rattus norvegicus, PEPTIDE (1)...(131) wild-type rat intestinal fatty acid binding protein) AFDGTWKVDRNENYEKFMEKMGLNVVKRKLGAHDNLKLTITQEGNKFTVKESSNFRNIDVVFELGVDFAYSAADGTELTGTWTMEGNKLVGKFKRVDNGKELIAVREISGNELIQTYTYEGVEAKRIFKKE | 1.174 | 0.928 | 1.057 | 1.041 | 1.025
14L 72G 117I (protein, listed as Rattus norvegicus, PEPTIDE (1)...(131) wild-type rat intestinal fatty acid binding protein) AFDGTWKVDRNENLEKFMEKMGINVVKRKLGAHDNLKLTITQEGNKFTVKESSNFRNIDVVFELGVDFAYSGADGTELTGTWTMEGNKLVGKFKRVDNGKELIAVREISGNELIQTITYEGVEAKRIFKKE | 0.787 | 0.231 | 0.395 | 0.764 | 0.812
55Y, 72A (protein, listed as Rattus norvegicus, PEPTIDE (1)...(131) wild-type rat intestinal fatty acid binding protein) AFDGTWKVDRNENYEKFMEKMGINVVKRKLGAHDNLKLTITQEGNKFTVKESSNYRNIDVVFELGVDFAYSAADGTELTGTWTMEGNKLVGKFKRVDNGKELIAVREISGNELIQTYTYEGVEAKRIFKKE | 0.471 | 0.249 | 0.329 | 0.324 | 0.335
